Consider seven molecules from article PMC4258470 (Journal of molecular biology, 2014).

To fix the notation:
T1: H6GB1-E7(1-98), full length HPV16 E7 fused to His6-GB1, phosphorylated by CKII (HPV16, UniProt P03129 1-98)
T1 sequence: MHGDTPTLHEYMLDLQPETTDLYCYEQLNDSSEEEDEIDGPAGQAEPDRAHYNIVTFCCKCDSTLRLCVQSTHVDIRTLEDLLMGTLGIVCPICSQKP

T2: H6GB1-E7(1-98), full length HPV16 E7 fused to His6-GB1, unphosphorylated (HPV16, UniProt P03129 1-98)
T2 sequence: T1 sequence

T3: E7(1-98), full length HPV16 E7, unphosphorylated, MBP removed (HPV16, UniProt P03129 1-98)
T3 sequence: T1 sequence

B1: ppE7(1-51) C24A,A50C-594, HPV16 E7(1-51) double mutant, phosphorylated and labelled with Alexa Fluor 594 (domain or fragment)
chain: MHGDTPTLHEYMLDLQPETTDLYAYEQLND[pS][pS]EEEDEIDGPAGQAEPDRC(Alexa Fluor 594)H
B2: H6Rb-AB, His6-tagged central pocket of the retinoblastoma protein (domain or fragment)
chain: HTPVRTVMNTIQQLMMILNSASDQPSENLISYFNNCTVNPKESILKRVKDIGYIFKEKFAKAVGQGCVEIGSQRYKLGVRLYYRVMESMLKSEEERLSIQNFSKLLNDNIFHMSLLACALEVVMATYSRSTSQNLDSGTDLSFPWILNVLNLKAFDFYKVIESFIKAEGNLTREMIKHLERCEHRIMESLAWLSDSPLFDLIKQSKGSGSTSLSLFYKKVYRLAYLRLNTLCERLLSEHPELEHIIWTLFQHTLQNEYELMRDRHLDQIMMCSMYGICKVKNIDLKFKIIVTAYKDLPHAVQETFKRVLIKEEEYDSIIVFYNSVFMQRLKTNILQYAST
B3: TAZ2 domain of mouse CBP (residues 1764-1855) (domain or fragment, UniProt P45481 1764-1855, looked up)
chain: SPQESRRLSIQRCIQSLVHACQCRNANCSLPSCQKMKRVVQHTKGCKRKTNGGCPVCKQLIALCCYHAKHCQENKCPVPFCLNIKHKLRQQQ
B4: E7(1-51) from HPV16, unphosphorylated, tag removed (domain or fragment)
chain: MHGDTPTLHEYMLDLQPETTDLYCYEQLNDSSEEEDEIDGPAGQAEPDRAH
B5: pp6b-E7(1-51), phosphorylated E7(1-51) from low risk HPV6b (domain or fragment)
chain: MHGRHVTLKDIVLDLQPPDPVGLHCYEQLVDSSEDEVDEVDGQDSQPLKQH
modifications: also: phosphorylated by CKII, positions not given here
B6: 6b-E7(1-51), unphosphorylated E7(1-51) from low risk HPV6b (domain or fragment)
chain: B5 chain
B7: ppE7(1-51), HPV16 E7(1-51) phosphorylated by casein kinase II at serines 31 and 32 (domain or fragment)
chain: MHGDTPTLHEYMLDLQPETTDLYCYEQLND[pS][pS]EEEDEIDGPAGQAEPDRAH

Like-named read-outs stand apart in the source and are kept apart here. Where no end group is shown, it is not given here. [ ]: non-standard residue; d: D form. pS = N[C@@H](COP(=O)(O)O)C(=O)O

Experiment [1] concerns the target B3. In words: fluorescence polarisation. (In general: Polarisation of emitted light reports the rotation of a fluorescent probe.)
In experiment [2] the target is T1, H6GB1-E7(1-98), full length HPV16 E7 …. Kind of experiment: pull-down.
The target of experiment [3] is T2, H6GB1-E7(1-98), full length HPV16 E7 …. Kind of experiment: pull-down.
The target of experiment [4] is T3, E7(1-98), full length HPV16 E7, …. In words: NMR titration.
Experiment [5] deals with T2, H6GB1-E7(1-98), full length HPV16 E7 …. In words: pull-down. The source holds these as a separate data set.
The target of experiment [6] is B3. Kind of experiment: fluorescence polarisation. This is another data set of the same source.
Experiment [7] has as its target B3. In words: NMR titration.
In experiment [8] the target is TAZ1 domain of mouse CBP (residues 345-439) (mouse, UniProt P45481 345-439). Kind of experiment: NMR titration.
Chain of TAZ1 domain of mouse CBP (residues 345-439) (P45481 345-439): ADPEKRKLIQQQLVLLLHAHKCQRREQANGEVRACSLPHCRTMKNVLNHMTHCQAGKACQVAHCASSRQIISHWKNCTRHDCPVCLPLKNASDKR

One may read the Kd as the free concentration of one partner at which half of the binding sites on the other are occupied at equilibrium, for simple one-to-one binding. A high value points to weaker binding. As for B1, the affinity in experiment [1], expressed as Kd, was 28 ± 6 nM.
With B2, the binding result in experiment [2] and in experiment [3] was “binds” each time.
Consider B3, for which the binding result in experiment [4] and in experiment [5] was “binds” throughout.
In turn, B4 returned a Kd in experiment [6] of 22 ± 6 nM.
Same read-out and setting: the value for B5 was 31 ± 3 nM.
B6 showed a Kd in experiment [6] of 79 ± 10 nM.
In experiment [6], B7 gave a Kd of 7 ± 3 nM. In experiment [7], the “Kd of the primary binding site (Kd1, 2-site model)” value came out at 4 ± 3 nM and the “Kd of the secondary binding site (Kd2, 2-site model)” value worked out at 33 ± 2 µM. This molecule had a Kd in experiment [8] of 7 ± 0.3 µM.
